Test results: the nanobody polyreactivity screen of Harvey et al. (2022)

assay: yeast display, Sf9 membrane polyspecificity reagent, FACS + sequencing; frameworks hold sequencing errors
In short: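 Synthetic nanobody libraries on Saccharomyces cerevisiae BJ5465 were galactose-induced for 36–48 hours, stained 1 hour at 4 °C with 10% biotinylated, detergent-solubilized Sf9 membrane reagent and enriched on streptavidin microbeads. FACS then separated cells into low and high (top ~1%) gates by anti-HA (expression) and streptavidin (reagent binding) fluorescence. Genes were colony-PCR amplified, MiSeq 2 × 250 sequenced and CDR-length filtered. A clone's polyreactivity label is that of its gate of origin.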

Row | Sequence | polyreactivity (PSR sort gate)
1 | QDQLVESGGGLVQAGGSLRLSCAASGFTFSWNAMGWYRQSPGKERQLVAAISWSGGSTYYADSVKGRFTISRDNAKNTVYLQMNSLKPEDTAVYYCNAGSTRAASRVRYDYWGQGTQVTVSS | high polyreactivity
2 | QDQLVESGGGLVQAGGSLRLSCAASGFTFTRYAMGWYRQAPGKERELVAAITQRGGSTYYADSVKGRFTISRDNAKNTVYLQMNSLKPEDTAVYYCAAVQTRRWYGYLYNYWGQGTQVTVSS | high polyreactivity
3 | QDQLVESGGGLVQAGGSLRLSCAASGFTFTRYAMGWYRQAPGKERELVAAITRRSGRTYYADSVKGRFTISRDNAKNTVYLQMNSLKPEDTAVYYCNAVRTTPSGSLPLAYDYWGQGTQVTVSS | high polyreactivity
4 | QDQLVESGGGLVQAGGSLRLSCAASGFTFVINDMGWYRQAPGKERELVADITSGGDTYYADSVKGRFTISRDNAKNTVYLQMNSLKPEDTAVYYCNTDTYFPLYDYWGQGTQVTVSS | low polyreactivity
5 | QDQLVESGGGLVQAGGSLRLSCAASGIIFGYYAMGWDRQAPGKERELVAAISSGGTTSYADSVKGPFTISRDNEKNTVSLQMNSLKPEYTAVYYCAARDGYDGFYYWGQGTQVTVSS | low polyreactivity
6 | QDQLVESGGGLVQAGGSLRLSCAASGIIIWRYAMGRYRQAPRKERELVAGITSRGGSTYYADSVKGRFTISRDNAKNTVYLQMNSLKPEDTAVYYCNADWYGLLWWGVDYWGQGTQVTVSS | high polyreactivity
7 | QDQLVESGGGLVQAGGSLRLSCAASGITFDYYVMGWYRKAPGKEMELVAAISWSGGTTYYADSVKGRFTISRDNAKNTVSLQMNSLKPEDTAVYYCNAEHTGSFYGGYPWEMEYWGQGTQVTVSS | low polyreactivity
8 | QDQLVESGGGLVQAGGSLRLSCAASGITFRWYAMGWYRQAPGKERELVAAITSVDSTDYADSVKGRFTISRDNAKNTVYLQMNSLKPEDTAVYYCAARIGTGVLPGRGANSHMDYWGQGTQVTVSS | low polyreactivity
9 | QDQLVESGGGLVQAGGSLRLSCAASGITFRYYAKGWYRPSPGKERELLAAISTSGGNTYYADSVKGRLTISRDNAKNTVYLQMKSLKPEDTAVYYCDVDGEYWYEYDGDYWGQGTQVNVSS | low polyreactivity
10 | QDQLVESGGGLVQAGGSLRLSCAASGITFYGYAMGWYRQAPGKERELVAAISESGGSTYYADSVKGRFTISRDNAKNTVYLQMNSLKPEDTAVYYCAAQGYSVYCYSNYWGQGTQVTVSS | low polyreactivity
11 | QDQLVESGGGLVQAGGSLRLSCAASGITFYRNAMGWYRQAPGKERELVAAITSGTRTNYADSVKGRFTISRDNAKNTVYLQMNSLKPEDTAVYYCAKGGRSSSPLYRFEYWGQGTQVTVSS | high polyreactivity
12 | QDQLVESGGGLVQAGGSLRLSCAASGLIFPYNAMGWYRQAPGKERELVAAIDTRGSSTYYADSVKGRFTISRDNAKNTVYLQMNSLKPEDTAVYYCIPRSGRSPTGFRYWGQGTEVTVSS | high polyreactivity
13 | QDQLVESGGGLVQAGGSLRLSCAASGLIFVSYAMGWYRQAPGKERELVASITDSDSSTYYADSVKGRFTISRDNAKNTVYLQMNSLKPEDTAVYYCATGGRTEIWYPTLDYWGQGTQVTVSS | low polyreactivity
14 | QDQLVESGGGLVQAGGSLRLSCAASGLIFYGNAMGWYRQAPGQERELVADISGSSVRTYYADSVKGRFTISRDNAKNTVCLQMNSLKPEDTAVYYCAATYGYLYTGLSRYDYWGQGTQVTVSS | low polyreactivity
15 | QDQLVESGGGLVQAGGSLRLSCAASGLIYSYYALGWSRQATGKERELVASISRSGGSTYYADSVKGRFTISRDNAKNTVYLQMNILKPEDPAVYYCDAPGYYRTSRMDYWGQGTQVTVSS | high polyreactivity
16 | QDQLVESGGGLVQAGGSLRLSCAASGLTFEKYAMGWYRQAPGKERELVAAISQDGGSTYYADSVKGRFTISRDNAKNTVYLQMNSLKPEDTAVYYCAAEDPDSWLPWDLFDYWGQGTQVTVSS | low polyreactivity
17 | QDQLVESGGGLVQAGGSLRLSCAASGLTFQSYAIGWYRQAPGKERELVATISNGSSTYYADSVKGRFTISRDNAKNTVYLQMNSQKPEDTAVYYCAADGYLHAGHWRTYGYYYWGHGTQVTVSS | low polyreactivity
18 | QDQLVESGGGLVQAGGSLRLSCAASGLTIIFNAMGWYRQAPGKERELVADISSGVNTNYADSVKGRFTISRDNAKNTVYLQMNSLKPEDTAVYYCAARLAQSTGYGYWGQGTQVTVSS | low polyreactivity
19 | QDQLVESGGGLVQAGGSLRLSCAASGPIFYPYVMGWYRQAPGKERELVAAISDSTGSTYYADSVKGRFTISRDNAKNTVYLQMNSLKPEDTAVYYWGQGTQVTVSS | low polyreactivity
20 | QDQLVESGGGLVQAGGSLRLSCAASGRIFLYNAMGWYRQAPGKERELVAAIDGGGTTYADSVKGRFTISRDNAKNTVYLQMNSLKPEDTAVYYCAADWYYQYSIYRYGYWGQGTQVTVSS | low polyreactivity
21 | QDQLVESGGGLVQAGGSLRLSCAASGRIFPVYAMGWYRQAPGKERELVATITSRTGRTYYADSVKGRFTISRDNAKITVYLQMNSLKPEDTAVYYCAARGYYSAPGYGYWGQGTQVTVSS | high polyreactivity

Row | Sequence | polyreactivity (PSR sort gate)
22 | QDQLVESGGGLVQAGGSLRLSCAASGRIFVHNAMGWYRQAPGKERELVAAIYQNGGRTYYADSVKGRFTISRDNAMNTVYLQMNSLKPEDTAVYYCAAGQARAGLIGGYWGQGTQVTVSS | high polyreactivity
23 | QDQLVESGGGLVQAGGSLRLSCAASGRILASYAMGWYRQAPGKERELVAAISLSGGSTYYADSVKGRFTISRDNAKNTVYLQMNSLKPEDTAVTYCAAKYPQKTPVNSYGNSFYYWGQGTQVTGSS | low polyreactivity
24 | QDQLVESGGGLVQAGGSLRLSCAASGRILPYYTMGWYRQAPGKERELVAAISKRGTSTYYADSVKGRFTISRDNAKNTVYLQMNSLKPEDTAVYYCAKRGPGVDYDYWGQGTQVTVSS | high polyreactivity
25 | QDQLVESGGGLVQAGGSLRLSCAASGRILRQYAMGWYRQAPGKERELVAAITSGDSTYYADSVKGRFTISRDNAKNTVYLQMNSLKTEDTAVYYCAAYSWLYEGYEYWGQGTQVTVSS | high polyreactivity
26 | QDQLVESGGGLVQAGGSLRLSCAASGRTFAKSAMGWYRQAPGKERELVASISRRGGSTYYADSVKGRFTISRDNAKNTVYLQMNSLKPEDTAVYYCNAVVTVNGYDSWGQGTQVTVSS | high polyreactivity
27 | QDQLVESGGGLVQAGGSLRLSCAASGRTFHRNAMGLYRQAPGKERELVAAITGTGGRTYYADSVKGRFTISRDNAKNTVYLQMNSLKPEDTEVYYCAARPWIKSGYWGQGTQVTVSW | high polyreactivity
28 | QDQLVESGGGLVQAGGSLRLSCAASGRTFPYKAMGWYRQAPGKERELVAAISYAGGRTYYADSVKGRFTISRDTAKNTVYLQMNSLKPEDTAVYYCYALGSGREDDYWGQGTQVTVSS | high polyreactivity
29 | QDQLVESGGGLVQAGGSLRLSCAASGRTFSTYAMGWYRQAHGKERELVARITSSGGSTYFADSVKGRFTISRDNAKNTVYLQMNSLKPEDTAVYYCAADAWSYWGYPYWWGYDYWGQGTQVTVSS | high polyreactivity
30 | QDQLVESGGGLVQAGGSLRLSCAASGRTFTTNDMGWYRQAPGKEWELVAGISWSGGSTFYADSVKGRFTISRDNAKNTVYLQMNSLKPEDTAVYSCATSARSYQSAYGHYTWYDYWGQGTQVTVSS | low polyreactivity
31 | QDQLVESGGGLVQAGGSLRLSCAASGRTFVFYAMGWYRQAPGKERELVAAITSGTSTNYADSVKGRFTISRDNAMNTVYLQMNSLKPEDTAVYYCAAYWTDLTYSIGFGYWGQGTQVTVSS | low polyreactivity
32 | QDQLVESGGGLVQAGGSLRLSCAASGRTFWRYAMGWYRQAPGKERELVAAITSGGGSTYYADSVKGRFTISRDTAKNTVYLQMNSLKPEDTAVSYCNRAGRGRSFKGDYWGQGTQVTVSS | high polyreactivity
33 | QDQLVESGGGLVQAGGSLRLSCAASGRTFWVYAKGWYRQAPGKERELVAGISWDDGSTYYADSVKGRFTISRDNAKNTVYLQMNSLKPEDTAVYYCAADAYFIFYISYEYWGQGTQVTVSS | low polyreactivity
34 | QDQLVESGGGLVQAGGSLRLSCAASGRTFYIYAMGWYRQATGKERELVAAISSYTSTKYADSVKGRFTISRDNAKNTVYLQMICLKPEDTAVYYCASGYPVRYRGYLNWSYYAYDYWGQGTQVTVSS | low polyreactivity
35 | QDQLVESGGGLVQAGGSLRLSCAASGRTFYLYAMGWYRQAPGKERELVARISWGGGRTYYADSVKGRFTISRDNAKNTVYLQMNSLKPEDTAVYYCNAQSPRGFTTTRQVYPLNGYWGQGTQVTVSS | high polyreactivity
36 | QDQLVESGGGLVQAGGSLRLSCAASGRTFYRYAMGWYRQAPGKERELVASITRGTSTNYADSVKGRFTISRDNAKNTVYLQMNSLKPEDTAVYYCNRRIFGGQRMYYWGQGTQVTVSS | high polyreactivity
37 | QDQLVESGGGLVQAGGSLRLSCAASGRTIFRNAMGWYRQAPGKERELVAAITWSGGSTYYADSVKGRFTISRDNAKNTVYLQMNSLKPEDTAVYYCNRKRYGSDYEYWGQGTQVTVSS | low polyreactivity
38 | QDQLVESGGGLVQAGGSLRLSCAASGRTLTRYTMGWYRQAPGKERELVATISRSGGNTHYADSVKGRFTISRDTAKNTVYLQMNSLIPEDTAVYYCNAVRYAIYGYDYWGQGTQVTVSS | high polyreactivity
39 | QDQLVESGGGLVQAGGSLRLSCAASGSIFADYVMGWYRQAPGKERELVAAITRRGRTYYADSVKGRFTISRDNAKNNVYLQMNSLKPEDTAVYYCAKVAYGKIDSWGQGTQVTVSS | low polyreactivity
40 | QDQLVESGGGLVQAGGSLRLSCAASGSIFDRNAMGWYRQAPGKERELVAAITSRGGRTYYADSVKGRFTISRDNAKNTVYLQMNSLKPEDTAVYYCNAVYSQSGYFYRFDYWGQGTQVTVSS | high polyreactivity
41 | QDQLVESGGGLVQAGGSLRLSCAASGSIFDVNAMGWYRQAPGKERELVAAISDSGGSTYYADSVKGRFTISRDNAKNTVYLQMNSLKPEDTAVYYCNADWSWYNYYDFDYWGQGTQVTVSS | low polyreactivity
